Measurements published in patent publication US20100310549A1 (Bristol-Myers Squibb, published 2010).
Substitutions are numbered along the chain they refer to. Names may count otherwise.

How the values were obtained:
[1] = biological target: mouse vascular endothelial growth factor receptor-2 Fc chimera (Flk-1-Fc) (mouse) (UniProt P35918); experiment: radioactive equilibrium binding
[2] = biological target: T1, mouse vascular endothelial growth factor receptor-2 Fc chimera (Flk-1-Fc) (mouse, UniProt P35918 20-762); experiment: radioactive equilibrium binding assay, 1 nM Flk-1-Fc, percent bound, average of 3 experiments
T1 construct: bought from R&D Systems; also called mouse VEGF-R2-Fc; Fc part of the bought chimera not given, not described
T1 sequence (P35918 20-762, change not shown): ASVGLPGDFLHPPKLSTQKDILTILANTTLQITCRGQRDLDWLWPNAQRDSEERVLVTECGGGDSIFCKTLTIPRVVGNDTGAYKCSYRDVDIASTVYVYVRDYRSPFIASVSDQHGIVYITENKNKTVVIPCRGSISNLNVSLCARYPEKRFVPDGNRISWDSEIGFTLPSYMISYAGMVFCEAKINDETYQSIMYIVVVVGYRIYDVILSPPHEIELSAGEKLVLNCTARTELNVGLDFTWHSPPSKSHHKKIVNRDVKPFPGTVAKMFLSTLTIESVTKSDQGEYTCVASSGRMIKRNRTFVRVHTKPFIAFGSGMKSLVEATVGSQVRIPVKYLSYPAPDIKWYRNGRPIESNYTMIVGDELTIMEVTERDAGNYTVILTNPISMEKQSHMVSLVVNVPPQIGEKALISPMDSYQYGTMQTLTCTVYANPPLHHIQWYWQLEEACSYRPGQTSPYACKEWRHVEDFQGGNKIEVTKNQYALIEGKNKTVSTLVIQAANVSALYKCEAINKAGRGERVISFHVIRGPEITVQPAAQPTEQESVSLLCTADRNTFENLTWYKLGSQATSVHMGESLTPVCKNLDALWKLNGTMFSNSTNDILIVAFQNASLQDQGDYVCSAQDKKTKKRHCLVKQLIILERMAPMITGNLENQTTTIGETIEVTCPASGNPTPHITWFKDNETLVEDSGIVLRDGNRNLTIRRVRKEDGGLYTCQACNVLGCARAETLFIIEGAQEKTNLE

[3] = biological target: T2, human vascular endothelial growth factor receptor-2 Fc chimera (KDR-Fc) (human, UniProt P35968 20-764); experiment: BIAcore, 20 nM KDR-Fc over immobilized VEGF165 in the presence of the soluble binder; blocked ligand VEGF165
T2 construct: range 1-764; also called human VEGF-R2-Fc; hKDR; not shown: human IgG1 Fc
Description: For inhibition experiments, human VEGF₁₆₅ was immobilized on a surface of CM-5 chip and KDR-Fc was injected at a concentration of 20 nM in the presence of different concentrations of soluble binding proteins ranging from 0 to 100 nM. IC₅₀ was determined at a concentration when only 50% of KDR-Fc binding to the chip was observed.

[4] = biological target: T3, human vascular endothelial growth factor receptor-2 Fc chimera (KDR-Fc) (human, UniProt P35968 20-764); experiment: BIAcore, KDR-Fc immobilised on CM5 chip
T3 construct: range 1-764; also called human VEGF-R2-Fc; not shown: human IgG1 Fc
Description: (§1) The binding kinetics of fibronectin-based scaffold proteins binding proteins to the target was measured using BIAcore 2000 biosensor (Pharmacia Biosensor). Human and mouse VEGF-R2-Fc fusions were immobilized onto a CM5 sensor chip and soluble binding proteins were injected at concentrations ranging from 0 to 100 nM in buffer O (10 mM HEPES, 150 mM NaCl, 0.005% Tween 20, pH 7.4). Sensorgrams were obtained at each concentration and were evaluated using a program, BIA Evaluation 2.0 (BIAcore), to determine the rate constants […] The affinity constant, KD was calculated from the ratio of rate constants koff/kₒₙ.

[5] = biological target: T1, mouse vascular endothelial growth …; experiment: BIAcore, Flk-1-Fc immobilised on CM5 chip
Description: as §1

[6] = biological target: human KDR/EpoR fusion (phKE8) on Ba/F3-KDR cells (human, UniProt P35968 20-764; P19235 251-508, limits assumed); experiment: cell-based or functional assay
[7] = biological target: T4, flk-1/EpoR fusion (pmKE2) on CHO-Flk or Ba/F3-Flk cells (mouse; human, UniProt P35918 20-762; P19235 251-508, limits assumed); experiment: cell-based or functional assay
T4 sequence (P35918 other isoform, or with tags, fused parts or gaps limits assumed, form in doubt): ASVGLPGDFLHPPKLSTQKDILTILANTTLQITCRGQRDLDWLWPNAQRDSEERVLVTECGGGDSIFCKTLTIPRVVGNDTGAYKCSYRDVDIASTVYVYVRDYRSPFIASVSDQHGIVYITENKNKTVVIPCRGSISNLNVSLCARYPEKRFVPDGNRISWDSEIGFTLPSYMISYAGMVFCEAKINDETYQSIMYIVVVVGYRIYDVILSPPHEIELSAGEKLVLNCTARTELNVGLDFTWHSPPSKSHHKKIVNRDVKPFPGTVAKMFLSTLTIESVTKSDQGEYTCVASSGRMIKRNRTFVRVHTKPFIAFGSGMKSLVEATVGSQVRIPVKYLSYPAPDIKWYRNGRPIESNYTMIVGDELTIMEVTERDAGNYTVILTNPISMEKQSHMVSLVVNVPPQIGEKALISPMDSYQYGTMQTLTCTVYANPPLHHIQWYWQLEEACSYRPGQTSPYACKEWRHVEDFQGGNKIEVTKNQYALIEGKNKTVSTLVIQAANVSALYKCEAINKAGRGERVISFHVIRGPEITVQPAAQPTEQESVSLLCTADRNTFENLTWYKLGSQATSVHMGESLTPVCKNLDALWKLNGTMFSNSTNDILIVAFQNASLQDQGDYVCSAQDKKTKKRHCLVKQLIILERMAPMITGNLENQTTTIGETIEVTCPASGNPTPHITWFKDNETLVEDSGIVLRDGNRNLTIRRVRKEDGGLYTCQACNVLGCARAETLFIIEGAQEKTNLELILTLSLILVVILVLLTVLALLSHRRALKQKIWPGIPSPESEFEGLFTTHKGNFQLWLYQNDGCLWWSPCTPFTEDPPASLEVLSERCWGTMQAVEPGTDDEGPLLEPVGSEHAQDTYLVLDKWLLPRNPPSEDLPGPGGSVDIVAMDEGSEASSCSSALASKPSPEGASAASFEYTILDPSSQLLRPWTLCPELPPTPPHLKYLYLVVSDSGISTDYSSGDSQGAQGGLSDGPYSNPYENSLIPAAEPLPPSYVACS

[8] = biological target: VEGFR-2 (KDR) of HUVEC cells (human, UniProt P35968 20-1356); experiment: cell-based or functional assay
[9] = biological target: T5, full-length human KDR on CHO-KDR cells (human, UniProt P35968 20-1356); experiment: flow cytometry on CHO-KDR cells, anti-His6 detection
T5 construct: whole, on cells; stably transfected CHO-K1 cells
Description: The functionality of KDR and Flk-1 binding molecules in a cell culture model system was evaluated with E. coli produced binding molecules.
Binding of fibronectin-based scaffold protein to cell-surface KDR and Flk-1 was analyzed simultaneously on VEGF-R2-expressing and control cells by flow cytometry. CHO-pcDNA3 cells (control) were released from their dishes with trypsin-EDTA, washed in Dulbecco's PBS without calcium and magnesium (D-PBS⁻; Invitrogen), and stained for 30 minutes at 37° C. with 1.5 μM CMTMR (5-(and-6)-(((4-chloromethyl)benzoyl)amino)-tetramethylrhodamine) (Molecular Probes). The cells were washed in D-PBS⁻ and incubated for a further 30 minutes at 37° C., and then resuspended in blocking buffer (D-PBS710% fetal bovine serum) on ice. CHO-KDR or CHO-Flk cells were treated identically except that CMTMR was omitted. 75,000 of CMTMR-stained CHO-pcDNA3 cells were mixed with an equal number of unstained CHO-KDR or CHO-Flk cells in each well of a V-bottom 96-well plate. All antibodies and fibronectin-based scaffold proteins were diluted in 25 μl/well of blocking buffer, and each treatment was conducted for 1 hour at 4° C. Cell mixtures were stained with His₆-tagged fibronectin-based scaffold proteins, washed twice with cold D-PBS⁻, and then treated with 2.5 μg/ml anti-His₆ MAb (R&D Systems), washed, and stained with 4 μg/ml Alexa Fluor 488-conjugated anti-mouse antibody (Molecular Probes). For cells treated with an anti-KDR mouse monoclonal antibody (Accurate Chemical, Westbury, N.Y.) or an anti-flk-1 goat polyclonal antibody (R&D Systems), the anti-His₆ step was omitted, and antibody binding was detected with the species-appropriate Alexa Fluor 488 conjugated secondary antibody (Molecular Probes). Following staining, cells were resuspended in 200 μl/well D-PBS⁻/1% FBS/1 μg/ml 7-aminoactinomycin D (7-AAD; Molecular Probes) and analyzed by flow cytometry on a FACSCalibur (Becton Dickinson, San Jose, Calif.) equipped with a […].

[10] = biological target: T4, flk-1/EpoR fusion (pmKE2) on CHO-Flk or …; experiment: flow cytometry on CHO-Flk cells, anti-His6 detection

Chain of mouse vascular endothelial growth factor receptor-2 Fc chimera (Flk-1-Fc) (mouse) (P35918 20-762, change not shown): as the sequence (P35918 20-762, change not shown) above

B1: EGE11 (FG loop …) (designed binder)
chain: EVVAATPTSLLISWRHPHFPTRYYRITYGETGGNSPVQEFTVPLQPPTATISGLKPGVDYTITGYAVTMGKNDRELLTPISINYRT
Binding to 1 nM Flk-1, % [1]: 1%

B2: F10 (Table 2) (designed binder)
chain: B1 chain with G70A, K71P, D73G
Binding to 1 nM Flk-1, % [1]: 1%

B3: F6 (designed binder)
chain: B1 chain with M69V, G70E, K71Q, D73G, E75V, L77M
Binding to 1 nM Flk-1, % [1]: 2%

B4: K10 (designed binder)
chain: B1 chain with M69T, K71P, E75L, L77F, T78V
notes: Del 1-8; in vitro translated, Flag tag
binding result [2]: no binding (tested: 1 nM Flk-1-Fc)

B5: K15 (designed binder)
chain: B1 chain with M69E, G70V, K71H, N72H, L76I, L77K
notes: as for B4
binding result [2]: no binding (tested: 1 nM Flk-1-Fc)

B6: K14 (designed binder)
chain: B1 chain with M69R, G70E, K71E, R74H, T78I
notes: as for B4
binding result [2]: no binding (tested: 1 nM Flk-1-Fc)

B7: K12 (designed binder)
chain: B1 chain with M69D, G70V, K71Y, R74H, L76I, L77K
notes: as for B4
binding result [2]: no binding (tested: 1 nM Flk-1-Fc)

B8: K6 (designed binder)
chain: B1 chain with M69D, N72D, D73G, E75V
notes: as for B4
binding result [2]: no binding (tested: 1 nM Flk-1-Fc)

B9: K9 (designed binder)
chain: B1 chain with M69F, K71L, N72Y, D73G, R74K, T78I
notes: as for B4
binding result [2]: no binding (tested: 1 nM Flk-1-Fc)

B10: K1 (designed binder)
chain: B1 chain with K71L, N72Y, D73G, R74H
notes: as for B4
binding result [2]: no binding (tested: 1 nM Flk-1-Fc)

B11: K13 (designed binder)
chain: B1 chain with M69L, G70A, K71L, N72K, D73G, R74H
notes: as for B4
binding result [2]: no binding (tested: 1 nM Flk-1-Fc)

B12: VR28 (designed binder)
chain: VSDVPRDLEVVAATPTSLLISWRHPHFPTRYYRITYGETGGNSPVQEFTVPLQPPTATISGLKPGVDYTITGYAVTVAQNDHELITPISINYRT
notes: 10Fn3 variant, WT N-terminus; also called VR28 (I69T)
IC50 (read off the curve) [3]: ~20 nM

B13: M5FL, E. coli-expressed, His6 (designed binder)
chain: VSDVPRDLEVVAATPTSLLISWRHPHFPTRYYRITYGETGGNSPVQEFTVPLQPPLATISGLKPGVDYTITVYAVTKERNGRELFTPISINYRTEIDKPSQHHHHHH
notes: soluble E. coli form with Ser100
Kd [4]: 0.89 nM
koff [4]: 9.2e-05 s⁻¹
kon [4]: 100000 M⁻¹ s⁻¹
Kd [5]: 2.1 nM
koff [5]: 0.000582 s⁻¹
kon [5]: 280000 M⁻¹ s⁻¹
Inhibition of VEGF-induced proliferation, Ba/F3-KDR (IC50, nM) [6]: 3.9 nM
Inhibition of VEGF-induced proliferation, Ba/F3-Flk (IC50, nM) [7]: 5.1 nM
Inhibition of VEGF-induced proliferation of HUVEC cells (IC50, nM) [8]: 8.5 nM

B14: VR28, E. coli-expressed, His6 (designed binder)
chain: B13 chain with L56T, V72G, K77V, E78A, R79Q, G81D, R82H, F85I
notes: soluble E. coli form; N-terminal Met not described
Kd [4]: 13 nM
koff [4]: 0.00034 s⁻¹
kon [4]: 30000 M⁻¹ s⁻¹

B15: E19, E. coli-expressed, His6 (designed binder)
chain: EVVAATPTSLLISWRHPHFPTRYYRITYGETGGNSPVQEFTVPLQPPTATISGLKPGVDYTITGYAVTVERNGRHLMTPISINYRTEIDKPSQHHHHHH
notes: soluble E. coli form; N-terminal residues added for expression not described
EC50 [9]: 7.6 nM
Kd [4]: 0.06 nM
koff [4]: 1.7e-05 s⁻¹
kon [4]: 300000 M⁻¹ s⁻¹
Kd [5]: 0.34 nM
koff [5]: 0.000223 s⁻¹
kon [5]: 660000 M⁻¹ s⁻¹
Inhibition of VEGF-induced proliferation, Ba/F3-KDR (IC50, nM) [6]: 12.3 nM
Inhibition of VEGF-induced proliferation, Ba/F3-Flk (IC50, nM) [7]: 5.8 nM
EC50 [10]: 5.3 nM
Inhibition of VEGF-induced proliferation of HUVEC cells (IC50, nM) [8]: 11.8 nM

B16: E29, E. coli-expressed, His6 (designed binder)
chain: B15 chain with H75V
notes: as for B15
EC50 [9]: 2.3 nM
Kd [4]: 0.19 nM
koff [4]: 7e-05 s⁻¹
kon [4]: 360000 M⁻¹ s⁻¹
Kd [5]: 0.37 nM
koff [5]: 0.000288 s⁻¹
kon [5]: 790000 M⁻¹ s⁻¹
Inhibition of VEGF-induced proliferation, Ba/F3-KDR (IC50, nM) [6]: 10 nM
Inhibition of VEGF-induced proliferation, Ba/F3-Flk (IC50, nM) [7]: 4.7 nM
EC50 [10]: 0.6 nM
Inhibition of VEGF-induced proliferation of HUVEC cells (IC50, nM) [8]: 8.4 nM

B17: E18, E. coli-expressed, His6 (designed binder)
chain: B15 chain with H75E, M77N
notes: as for B15
EC50 [9]: 4.2 nM
Kd [4]: 0.46 nM
koff [4]: 0.000121 s⁻¹
kon [4]: 260000 M⁻¹ s⁻¹
Kd [5]: 0.33 nM
koff [5]: 0.000195 s⁻¹
kon [5]: 600000 M⁻¹ s⁻¹
Inhibition of VEGF-induced proliferation, Ba/F3-KDR (IC50, nM) [6]: 5.4 nM
Inhibition of VEGF-induced proliferation, Ba/F3-Flk (IC50, nM) [7]: 2.4 nM
EC50 [10]: 0.9 nM
Inhibition of VEGF-induced proliferation of HUVEC cells (IC50, nM) [8]: 12.8 nM

B18: E6, E. coli-expressed, His6 (designed binder)
chain: B15 chain with V69D, E70G, R71W, H75L, M77S, T78I
notes: as for B15
Kd [4]: 0.08 nM
koff [4]: 6.7e-05 s⁻¹
kon [4]: 890000 M⁻¹ s⁻¹
Kd [5]: 2.02 nM
koff [5]: 0.00136 s⁻¹
kon [5]: 670000 M⁻¹ s⁻¹
